We go through one molecule from PMC3515335, “CDK2 Regulates HIV-1 Transcription by Phosphorylation of CDK9 on Serine 90” (Retrovirology, 2012).

For this experiment, the target named is T1, Flag-tagged CDK9 S90A (human, UniProt P50750 1-372, S90A).
T1 construct: also called Flag-CDK9 S90A
As to the kind of experiment: co-IP; Flag-CDK9 (WT or S90A) precipitated with anti-Flag antibodies from lysates of 293T cells co-transfected with cyclin T1, 48 hrs post-transfection; whole cell lysis buffer (50 mM Tris-HCl pH 7.5, 0.5 M NaCl, 1% NP-40, 0.1% SDS); IP 2 hrs at 4°C in TNN buffer (50 mM Tris-HCl pH 7.5, 150 mM NaCl, 1% NP-40); immunoblot for Hexim1, CDK9 and cyclin T1. Conditions: partners not purified. A general note: In western blotting, separated proteins are transferred to a membrane and probed.

T1 sequence (P50750 whole entry S90A): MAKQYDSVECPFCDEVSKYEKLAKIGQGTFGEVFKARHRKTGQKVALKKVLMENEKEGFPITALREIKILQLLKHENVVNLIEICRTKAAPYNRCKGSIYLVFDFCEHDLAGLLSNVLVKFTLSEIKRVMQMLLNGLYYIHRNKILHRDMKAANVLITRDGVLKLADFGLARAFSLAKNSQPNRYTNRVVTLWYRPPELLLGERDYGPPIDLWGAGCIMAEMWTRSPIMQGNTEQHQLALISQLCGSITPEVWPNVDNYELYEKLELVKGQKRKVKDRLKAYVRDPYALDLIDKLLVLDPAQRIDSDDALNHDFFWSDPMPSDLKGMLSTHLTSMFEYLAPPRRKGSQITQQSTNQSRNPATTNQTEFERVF

B1: HEXIM1 (natural protein, human (endogenous in 293T), UniProt O94992 1-359, looked up)
chain: MAEPFLSEYQHQPQTSNCTGAAAVQEELNPERPPGAEERVPEEDSRWQSRAFPQLGGRPGPEGEGSLESQPPPLQTQACPESSCLREGEKGQNGDDSSAGGDFPPPAEVEPTPEAELLAQPCHDSEASKLGAPAAGGEEEWGQQQRQLGKKKHRRRPSKKKRHWKPYYKLTWEEKKKFDEKQSLRASRIRAEMFAKGQPVAPYNTTQFLMDDHDQEEPDLKTGLYSKRAAAKSDDTSDDDFMEEGGEEDGGSDGMGGDGSEFLQRDFSETYERYHTESLQNMSKQELIKEYLELEKCLSRMEDENNRLRLESKRLGGDDARVRELELELDRLRAENLQLLTENELHRQQERAPLSKFGD
notes: source: endogenous, 293T lysate
With B1, the “HEXIM1 co-precipitated, relative to WT CDK9” value is approximately 50 % less.
